For this experiment, the target named is T1, GST-LjBAK1cyt (Lotus japonicus, UniProt A0A2H4NR37).
T1 chain: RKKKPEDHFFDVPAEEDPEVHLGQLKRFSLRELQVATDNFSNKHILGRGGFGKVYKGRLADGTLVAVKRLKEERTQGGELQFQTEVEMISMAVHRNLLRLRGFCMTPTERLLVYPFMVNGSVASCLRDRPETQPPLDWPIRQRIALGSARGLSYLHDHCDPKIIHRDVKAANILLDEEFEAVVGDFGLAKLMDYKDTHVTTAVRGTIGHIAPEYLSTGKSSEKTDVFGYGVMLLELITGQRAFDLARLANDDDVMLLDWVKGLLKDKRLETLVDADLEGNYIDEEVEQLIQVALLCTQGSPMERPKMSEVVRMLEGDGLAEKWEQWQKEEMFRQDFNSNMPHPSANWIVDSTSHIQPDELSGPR
The experiment can be described thus: GST pull-down.

B1: HIS-NFR5cyt (protein)
chain: RRKKALNRTASSAETADKLLSGVSGYVSKPNVYEIDEIMEATKDFSDECKVGESVYKANIEGRVVAVKKIKEGGANEELKILQKVNHGNLVKLMGVSSGYDGNCFLVYEYAENGSLAEWLFSKSSGTPNSLTWSQRISIAVDVAVGLQYMHEHTYPRIIHRDITTSNILLDSNFKAKIANFAMARTSTNPMMPKIDVFAFGVLLIELLTGRKAMTTKENGEVVMLWKDMWEIFDIEENREERIRKWMDPNLESFYHIDNALSLASLAVNCTADKSLSRPSMAEIVLSLSFLTQQSSNPTLERSLTSSGLDVEDDAHIVTSITAR
As for B1, the binding result is given as “binds”.

The values above are taken from article PMC6171183 (2018).
